Measurements published in US20080292640A1.

Target: IL-1 receptor (human) (UniProt P14778)
Test: cell-based or functional assay

Chain of UniProt P14778 (P14778 18-569): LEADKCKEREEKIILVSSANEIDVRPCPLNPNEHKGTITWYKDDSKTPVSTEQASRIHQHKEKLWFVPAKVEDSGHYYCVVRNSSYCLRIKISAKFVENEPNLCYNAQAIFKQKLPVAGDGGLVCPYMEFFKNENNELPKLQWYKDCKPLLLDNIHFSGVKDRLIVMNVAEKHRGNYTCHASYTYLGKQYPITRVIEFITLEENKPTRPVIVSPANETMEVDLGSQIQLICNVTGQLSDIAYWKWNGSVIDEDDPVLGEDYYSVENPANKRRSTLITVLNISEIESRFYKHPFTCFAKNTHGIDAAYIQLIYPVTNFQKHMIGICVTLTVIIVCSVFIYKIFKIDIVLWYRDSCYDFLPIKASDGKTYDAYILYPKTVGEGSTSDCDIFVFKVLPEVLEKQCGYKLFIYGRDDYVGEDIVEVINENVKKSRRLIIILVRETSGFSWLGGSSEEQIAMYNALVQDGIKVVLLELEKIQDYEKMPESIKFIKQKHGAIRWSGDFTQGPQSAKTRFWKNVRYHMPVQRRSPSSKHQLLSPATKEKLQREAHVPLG

IC50, inhibition of IL-1β induced production of IL-8 in human whole blood (100 pM rhIL-1β): 53.4 pM
Substance: Kineret® (anakinra) (from UniProt P18510 26-177) (ligand)
